Results published in paper PMC6376876.

System: CC(=O)Oc1ccc([N+](=O)[O-])cc1
Assay: purified protein

LsALDH16 (Loktanella sp. 3ANDIMAR09) showed a Km of 1740 µM, a Vmax of 7.9 µmol/min/mg and a kcat of 10.6 ± 1.6 s⁻¹. For the same substance, the kcat/Km was 6000 ± 2000 M⁻¹ s⁻¹.
